Test results as given in PMC3777412.

How the values were obtained:
[1] = biological target: pY542 peptide (human); assay: SPR
[2] = biological target: pY580 peptide (human); assay: SPR

Kd [1]: 15.1 µM | Kd [2]: 294 µM
Substance: C-SH2 domain of Shp2, histidine-tagged (domain or fragment)
